In assay [1] the target is His-hCTLA-4 (polyhistidine-tagged CTLA-4) (human) (UniProt P16410). As to the kind of experiment: ELISA, plate-coated His-hCTLA-4, antibody 1 ug/ml, pH 5.5 against pH 7.0.
Assay [2] concerns the target T1, CTLA-4 (antigen of the affinity measurement of Table 1) (UniProt P16410 36-161, limits assumed).
T1 construct: Antigen form and method of the KD measurement are not described
T1 sequence (looked up): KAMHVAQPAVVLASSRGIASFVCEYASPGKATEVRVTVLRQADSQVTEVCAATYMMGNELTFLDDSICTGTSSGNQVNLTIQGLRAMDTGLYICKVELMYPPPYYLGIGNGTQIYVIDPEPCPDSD
The assay can be described thus: affinity, method not stated.

In assay [3] the target is T2, His-hCTLA-4 (polyhistidine-tagged CTLA-4) (human, UniProt P16410 36-161).
T2 construct: Coated on ELISA plates at 0.5 ug/ml; not shown: polyhistidine tag
T2 sequence (looked up): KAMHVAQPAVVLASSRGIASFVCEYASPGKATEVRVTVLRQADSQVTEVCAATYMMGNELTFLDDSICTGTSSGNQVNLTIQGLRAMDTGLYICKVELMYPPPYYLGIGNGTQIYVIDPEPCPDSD
The assay can be described thus: ELISA, plate-coated His-hCTLA-4, antibody 1 ug/ml, pH 5.5 against pH 7.0. The procedure: FIG. 1A-B. pH-sensitivity of TremeIgG1 and its variants. His-hCTLA-4 (0.5 μg/ml) was coated in ELISA plates and different anti-CTLA-4 mAbs were added at 1 μg/ml in the buffer over a pH range of 4.5 to 7.0. pH indicated represents binding and washing conditions. Antibodies bound to CTLA-4 were measured using horse-radish perioxidase-labeled anti-human IgG antibodies.
In order to validate the approach, the activity of the Tremelimumab mutant antibodies was evaluated. To determine if the introduction of histidine to the CDR regions affects the pH sensitivity of the antibodies, the antibody binding to its antigen, polyhistidine-tagged CTLA-4, was measured over a pH range. As a control, HL12, which is known to bind CTLA-4 in a pH-dependent manner, with reduced binding at low/acidic pH, was used.

Some results are limits rather than exact numbers.

B1: HL12 (antibody, from another filing, V domains shown)
VH: QVQLQESGPGLVKPSETLSLTCTVSGFSLTSYGLSWIRQPPGKGLEWIGYIWYDGNTNFHPSLKSRVTISKDTSKNQFSLKLSSVTAADTAVYYCAKTEGHYYGSNYGYYALDYWGQGTSVTVSS
VL: DIQMTQSPSSLSASVGDRVTITCRASENIYSNLAWYQQKQGKAPKLLLYAATNLQDGVPSRFSGSGSGTDYTLTISSLQPEDFATYFCQHLWGTPYTFGQGTKLEIK
Turning to B1, the binding at pH 5.5 relative to neutral pH (pH 7.0) in assay [1] is below 50%.

B2: AB139 (TremeIgG1) (antibody, V domains shown)
VH: QVQLVESGGGVVQPGRSLRLSCAASGFTFSSYGMHWVRQAPGKGLEWVAVIWYDGSNKYYADSVKGRFTISRDNSKNTLYLQMNSLRAEDTAVYYCARDPRGATLYYYYYGMDVWGQGTTVTVSS
VL: DIQMTQSPSSLSASVGDRVTITCRASQSINSYLDWYQQKPGKAPKLLIYAASSLQSGVPSRFSGSGSGTDFTLTISSLQPEDFATYYCQQYYSTPFTFGPGTKVEIKR
notes: Tremelimumab variable regions; also called mAb139; WT TremeIgG1
As to B2, the affinity in assay [2], expressed as Kd, was 0.147 nM.

B3: AB154 (antibody, V domains shown)
VH: QVQLVESGGGVVQPGRSLRLSCAASGFTFSHHGMHHVRQAPGKGLEWVAVIWYDGSNKYYADSVKGRFTISRDNSKNTLYLQMNSLRAEDTAVYYCARDPRGATLYYYYYGMDVWGQGTTVTVSS
VL: DIQMTQSPSSLSASVGDRVTITCRASQSINSYLDWYQQKPGKAPKLLIYAASSLQSGVPSRFSGSGSGTDFTLTISSLQPEDFATYYCQQYYSTPFTFGPGTKVEIKR
notes: TremeIgG1 mutant, IgG1; also called mAb154; TremeIgG1M
On to B3, for which, in assay [2], binding was characterised by a dissociation constant (Kd) of 1.23 nM.

B4: AB156 (antibody, IgG1, V domains shown)
VH: QVQLVESGGGVVQPGRSLRLSCAASGFTFSSYGMHWVRQAPGKGLEWVAVIWYDGSNKYYADSVKGRFTISRDNSKNTLYLQMNSLRAEDTAVYYCARDPRGATLHHHYYGMDVWGQGTTVTVSS
VL: DIQMTQSPSSLSASVGDRVTITCRASQSINSYLDWYQQKPGKAPKLLIYAASSLQSGVPSRFSGSGSGTDFTLTISSLQPEDFATYYCQQYYSTPFTFGPGTKVEIKR
notes: TremeIgG1 mutant, IgG1; also called Mab156; TremeIgG1M
B4: in assay [2], the Kd turned out to be 4.46 nM. Further, in assay [3], the “binding at pH 5.5 relative to neutral pH (pH 7.0)” value was at most 50%.

B5: AB159 (antibody, IgG1, V domains shown)
VH: QVQLVESGGGVVQPGRSLRLSCAASGFTFSSYGMHWVRQAPGKGLEWVAVIWYDGSNKHHADSVKGRFTISRDNSKNTLYLQMNSLRAEDTAVYYCARDPRGATLYYYYYGMDVWGQGTTVTVSS
VL: DIQMTQSPSSLSASVGDRVTITCRASQSINSYLDWYQQKPGKAPKLLIYAASSLQSGVPSRFSGSGSGTDFTLTISSLQPEDFATYYCQQYYSTPFTFGPGTKVEIKR
notes: TremeIgG1 mutant, IgG1; also called TremeIgG1M
On to B5, for which, in assay [2], binding was put at a Kd of 0.387 nM. Also, in assay [3], the “binding at pH 5.5 relative to neutral pH (pH 7.0)” value is at least 75%.

B6: AB158 (antibody, IgG1, V domains shown)
VH: QVQLVESGGGVVQPGRSLRLSCAASGFTFSSYGMHWVRQAPGKGLEWVAVIWYDGSNKYYADSVKGRFTISRDNSKNTLYLQMNSLRAEDTAVYYCARDPRGATLYHYYYGMDVWGQGTTVTVSS
VL: DIQMTQSPSSLSASVGDRVTITCRASQSINSYLDWYQQKPGKAPKLLIYAASSLQSGVPSRFSGSGSGTDFTLTISSLQPEDFATYYCQQYYSTPFTFGPGTKVEIKR
notes: as for B5
The molecule B6 returned a Kd in assay [2] of 0.542 nM. Also, the “binding at pH 5.5 relative to neutral pH (pH 7.0)” value in assay [3] was at least 75%.

B7: AB157 (antibody, IgG1, V domains shown)
VH: QVQLVESGGGVVQPGRSLRLSCAASGFTFSSYGMHWVRQAPGKGLEWVAVIWYDGSNKYYADSVKGRFTISRDNSKNTLYLQMNSLRAEDTAVYYCARDPRGATLYHHYYGMDVWGQGTTVTVSS
VL: DIQMTQSPSSLSASVGDRVTITCRASQSINSYLDWYQQKPGKAPKLLIYAASSLQSGVPSRFSGSGSGTDFTLTISSLQPEDFATYYCQQYYSTPFTFGPGTKVEIKR
notes: as for B5
B7 displayed a Kd in assay [2] of 2.32 nM. In assay [3], the “binding at pH 5.5 relative to neutral pH (pH 7.0)” value was at most 50%.

Values taken from patent US20250043003A1 (ONCOC4, published 2025).
